Experimental data: US20110300138A1 (published 2011)
One block for each molecule: values may come before it.

Columns and labels:
[1] = target: TSH receptor (full length human TSHR) coated on tubes (human) (UniProt P16473); assay: 125I-TSH binding inhibition read against NIBSC 90/672; mean over 10, 30 and 100 ng/mL, in assay buffer
[2] = target: TSHR (thyroid stimulating hormone receptor), full length human (human) (UniProt P16473); assay: negative control; competitor ^125I-K1-70 IgG, TSHR coated tubes; 10 µg/mL in HBD
[3] = target: TSH receptor (TSHR) coated on tubes (human) (UniProt P16473); assay: inhibition of 125I-K1-70 IgG binding to TSHR coated tubes; negative control 0.1 µg/mL in HBD serum pool
[4] = target: TSHR (full length) coated on tubes (human) (UniProt P16473); assay: inhibition of 125I-K1-18 Fab (competitor) binding to TSHR coated tubes; negative control 0.01 µg/mL in HBD serum
[5] = target: TSHR (thyroid stimulating hormone receptor), full length human (human) (UniProt P16473); assay: competitor ^125I-K1-70 IgG, TSHR coated tubes; 100 µg/mL in HBD
[6] = target: TSH receptor (full length human TSHR) (human) (UniProt P16473); assay: competition ELISA: inhibition of M22 Fab-peroxidase (competitor) binding to TSHR coated wells; test sample at 100 µg/mL diluted in assay buffer
[7] = target: TSHR with Phe134 mutated to Ala, expressed in CHO cells (human) (UniProt P16473); assay: cell-based or functional assay
[8] = target: wild type TSHR expressed in CHO cells (human) (UniProt P16473); assay: cell-based or functional assay
[9] = target: human TSH receptor (full length) coated on ELISA plate wells (human) (UniProt P16473); assay: TSH-biotin binding inhibition ELISA, TSHR coated wells; 10 µg/mL in HBD serum pool
[10] = target: TSH receptor (TSHR), full length human, coated on tubes (human) (UniProt P16473); assay: inhibition of 125I-K1-18 IgG (competitor) binding to TSHR coated tubes; test sample at 10 µg/mL in assay buffer
[11] = target: TSH receptor (TSHR), full length human, coated on tubes (human) (UniProt P16473); assay: inhibition of 125I-K1-18 IgG (competitor) binding to TSHR coated tubes; test sample at 100 µg/mL in assay buffer
[12] = target: TSH receptor (TSHR), full length human, coated on tubes (human) (UniProt P16473); assay: inhibition of 125I-K1-18 IgG (competitor) binding to TSHR coated tubes; test sample at 10 µg/mL in HBD serum pool
[13] = target: thyroid stimulating hormone receptor (full length human TSHR) (human) (UniProt P16473); assay: ELISA: inhibition of M22 Fab-peroxidase (competitor) binding to TSHR coated wells; 100 µg/mL, diluted in HBD serum pool

Molecule: 5B3 IgG (antibody)
Inhibition of binding (%) [2]: -1.5%
Inhibition of binding (%) [3]: 9.4%
Inhibition of binding (%) [4]: -8.6%

Molecule: 9D33 IgG (antibody)
Inhibition of binding (%) [5]: 51.1%
Inhibition of binding (%) [6]: 64.1%

Molecule: TSH (ligand)
% inhibition of TSH stimulation; TSH (2) [7]: 9%
Cyclic AMP produced; TSH 3 ng/mL [7]: 111 pmol/mL
Cyclic AMP produced; TSH (2) [7]: 102 pmol/mL
Mutated/wild type (%) of cyclic AMP produced; TSH 3 ng/mL [7]: 103%
Mutated/wild type (%) of cyclic AMP produced; TSH (2) [7]: 71%
Cyclic AMP produced; TSH 3 ng/mL [8]: 108 pmol/mL
Cyclic AMP produced; TSH (2) [8]: 142 pmol/mL

Further lines, results first:

mean units/mg [1]: 266 units/mg
Molecule: M22 IgG (antibody)

% inhibition of TSH-biotin binding [9]: 42.6%
Inhibition of binding (%) [10]: 65.9%
Inhibition of binding (%) [11]: 91.3%
Inhibition of binding (%) [12]: 46.7%
Inhibition of binding (%) [13]: 19.6%
B1: 5C9 IgG (antibody, from another filing, V domains shown)
VH: EVQLVESGGGLIQPGGSLRLSCAASGFTVSSNYMSWVRQAPGKGLEWVSVTYSGGSTSYADSVKGRFTISRDNSKNTLYLQMNSLRAEDTAVYYCARGGRYCSSISCYARSGCDYWGQGTLVTVSS
VL: AIQMTQSPSSLSASVGDRVTITCRASQSISNYLNWYQQKPGKAPKLLIYAASSLQSGVPSRFSGSGSGTDFTLTISSLQPEDFATYYCQQSYSSPSTTFGQGTKLEIK
